Results taken from patent US20220306748A1.

How the values were obtained:
[1] = biological target: human leukocyte antigen-G (HLA-G) recombinant protein (human) (UniProt P17693); assay: SPR kinetics, HLA-G as immobilised ligand; comparator panel at the right
[2] = biological target: CD3ε (CD3 epsilon) recombinant protein (UniProt P07766); assay: SPR kinetics, CD3ε as immobilised ligand; comparator panel at the right

Row | Kd [1] | Kd [2] | Substance
1 | 8.69 nM |  | Anti-human HLA-G Antibody (87G)
2 |  | 7.68 nM | Muromonab-CD3 (antibody)
